These results are taken from patent US12371675B2, “Process and microorganism for synthesis of adipic acid from carboxylic acids” (THE GOVERNING COUNCIL OF THE UNIVERSITY OF TORONTO, priority 2015, dated 2025).

The test system of series [1] is O=C(O)CCCO. The series can be described thus: purified protein, by the assay type. The following applies: other: ATP/NADPH dependent reduction; pH 7.5.
In series [2] the test system is O=C(O)CCCCCO. As to the kind of experiment: purified protein, by the assay type. The following applies: pH 7.5.
For series [3], the system named is CCCC=O. As to the kind of experiment: AR kinetics, aldehyde reduction followed by NAD(P)H oxidation. It counts as biochemical, Pseudomonas aeruginosa. The following applies: other: butyraldehyde, pH 7.5. From the text:
(§1) 28 aldehyde reductases from different bacteria were cloned and overexpressed in E. coli. Enzymes purified using affinity chromatography on Ni-NTA resin were screened for reductase activity with adipaldehyde and butyraldehyde in presence of both NADPH and NADH (Table 5). Butyraldehyde was used as a substrate substitute for 4-oxo-butanal, which is not commercially available. Reactions were followed spectrophotometrically, by cofactor oxidation at 340 nm.
(§2) Enzyme activity of purified ARs was measured spectrophotometrically in 96-well plates Reaction mixtures contained 100 mM HEPES buffer (pH 7.5), 0.4 mM NADH/NADPH, 10 mM adipaldehyde or butylaldehyde, and proteins (10 μg for adipaldehyde screen, 2 μg for butyraldehyde screen) in a final volume of 200 μL Reaction mixture for adipaldehyde screening contained 1.8% DMSO. Enzyme reactions were monitored by following the decrease in absorbance at 340 nm (ε340 nm=6,220/M·cm) due to oxidation of NAD(P)H to NAD(P)+.
(§3) ARs RHA1_ro05279, PA1146, SC00229, PP_3370 were characterised for saturation with adipaldehyde, PP_3370, PSPTO_2097, RHA1_ro05279, SC00229, TM_0111, PA1146 were characterised for butyraldehyde saturation (Table 10). […] For both substrates maximal kcat/Km with minimal Km values was shown by AR PP 3370 from Pseudomonas putida.

In series [4] the test system is O=CCCCCC=O. Described as above. The following applies: other: adipaldehyde; cofactor NADH; 1,8% DMSO; pH 7.5. In kind it is biochemical, Pseudomonas aeruginosa.
Description: as §1, §2, §3

In series [5] the test system is CCCC=O. The series is described as above. To be noted: other: butyraldehyde; cofactor NADPH; pH 7.5. It counts as biochemical, Pseudomonas syringae.
Description: as §1, §2, §3

For orientation: Km means the concentration of substrate that gives half-maximal velocity. Usually kcat stands for the number of substrate molecules converted per active site and unit of time at saturation. Usually kcat/Km stands for the turnover number divided by the Michaelis constant. Regarding “Mycobacterium smegmatis carboxylate reductase MSMEG_2956, SEQ ID NO: 70 (Mycolicibacterium smegmatis MC2 155)”, in series [1], the Km is listed as 69.57 ± 4.16 mM, the kcat was determined as 0.513 ± 0.017 s⁻¹ and the kcat/Km came to 7.37 ± 0.24 M⁻¹ s⁻¹.
On to “Mycobacterium paratuberculosis carboxylate reductase MAP_1040c, SEQ ID NO: 38 (Mycobacterium avium subsp. paratuberculosis MAP4)”, for which the Km in series [2] is given as 70.1 ± 7.04 mM.
As for “Mycobacterium smegmatis carboxylate reductase MSMEI_5586, SEQ ID NO: 35 (Mycolicibacterium smegmatis MC2 155)”, in series [1], the Km was determined as 19.63 ± 4.88 mM, the kcat came to 0.152 ± 0.013 s⁻¹ and the kcat/Km is 7.74 ± 0.66 M⁻¹ s⁻¹.
Turning to “Pseudomonas aeruginosa aldehyde reductase PA1146, SEQ ID NO: 43 (Pseudomonas aeruginosa PAO1)”, in series [3] (cofactor NADH), the Michaelis-Menten constant (Km) is on record as 15.6 ± 5.94 mM, the kcat was 9.01 ± 01.9 s⁻¹ and the kcat/Km entry was “(5.76 ± 1.22) × ×10^2 M^−1 · s^−1”. For the same substance, in series [3] (cofactor NADPH), the Km is 3.37 ± 0.9 mM, the kcat came to 0.84 ± 0.08 s⁻¹ and the kcat/Km result was “(2.49 ± 0.24) × ×10^2 M^−1 · s^−1”. In series [4], the Km worked out at 9.0 ± 1.99 mM, the kcat came to 5.45 ± 0.56 s⁻¹ and the kcat/Km entry was “(6.02 ± 0.06) × ×10^2 M^−1 · s^−1”.
Take “Pseudomonas syringae aldehyde reductase PSPTO_2097, SEQ ID NO: 46 (Pseudomonas syringae pv. tomato str. DC3000)”: in series [5], the Km is recorded as 10.3 ± 1.06 mM, the kcat worked out at 12.2 ± 0.63 s⁻¹ and the kcat/Km entry is listed as “(1.18 ± 0.06) × ×10^3 M^−1 · s^−1”.
Turning to “Mycobacterium smegmatis carboxylate reductase MSMEG_5739, SEQ ID NO: 37 (Mycolicibacterium smegmatis MC2 155)”, in series [1], the Km is reported as 37.84 ± 2.39 mM, the catalytic constant (kcat) stood at 0.51 ± 0.017 s⁻¹ and the specificity constant (kcat/Km) came out at 13.5 ± 0.45 M⁻¹ s⁻¹.
